In test [1] the target is ALK5-Flag (transforming growth factor-β receptor 1, TGFBR1) (UniProt P36897).
Test [2] shares this target. This is another data set of the same source.

Chain of UniProt P36897 (P36897 34-503): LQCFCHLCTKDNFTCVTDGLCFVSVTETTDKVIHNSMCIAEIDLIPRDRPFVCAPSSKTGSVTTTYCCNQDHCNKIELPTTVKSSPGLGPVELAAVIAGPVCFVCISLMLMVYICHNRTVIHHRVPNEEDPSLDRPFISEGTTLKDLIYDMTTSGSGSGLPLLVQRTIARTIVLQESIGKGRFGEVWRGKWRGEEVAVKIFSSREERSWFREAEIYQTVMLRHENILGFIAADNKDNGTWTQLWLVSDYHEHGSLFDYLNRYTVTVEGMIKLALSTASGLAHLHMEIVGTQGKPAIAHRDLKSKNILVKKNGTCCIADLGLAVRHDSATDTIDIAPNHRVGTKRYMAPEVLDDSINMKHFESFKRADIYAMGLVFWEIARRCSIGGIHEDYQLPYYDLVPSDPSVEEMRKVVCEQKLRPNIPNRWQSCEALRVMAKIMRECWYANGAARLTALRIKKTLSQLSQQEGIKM

In the case of “GST-Lum (recombinant GST-lumican fusion protein) (from UniProt P51885 19-338) (natural protein)”, the rate constant 1 of healing of scratched HTCE cells, GST-Lum with the ALK5 inhibitor SB431542 (10 µM); monophasic, no rate constant 2 in test [1] is 1.89 Δ%/h. Moreover, in test [2], the rate constant 1 of healing of scratched HTCE cells, GST-Lum in basic medium was 5.37 Δ%/h and the rate constant 2 of healing of scratched HTCE cells, GST-Lum in basic medium is 14.8 Δ%/h.

For “GST-LumC50 (GST fusion with the C-terminal 50 amino acids of Lum) (domain or fragment)”, in test [2], the rate constant 1 of healing of scratched HTCE cells, GST-LumC50 in basic medium is 5.35 Δ%/h and the rate constant 2 of healing of scratched HTCE cells, GST-LumC50 in basic medium is 14 Δ%/h.

Take “LumC13 peptide (the last C-terminal 13 amino acids of Lum)”: in test [2], the rate constant 1 of healing of scratched HTCE cells, LumC13 peptide was 4.62 Δ%/h and the rate constant 2 of healing of scratched HTCE cells, LumC13 peptide is 13.5 Δ%/h.

As for “LumC13C-A peptide (LumC13 with the cysteine substituted with alanine)”, in test [2], the rate constant 1 of healing of scratched HTCE cells, LumC13C-A peptide is 5.1 Δ%/h and the rate constant 2 of healing of scratched HTCE cells, LumC13C-A peptide is 13.9 Δ%/h.

These data come from publication PMC3867403.
